Read-outs that look alike come from different tables or passages of the source.
T1: C-reactive protein (UniProt P02741 19-224)
T1 sequence: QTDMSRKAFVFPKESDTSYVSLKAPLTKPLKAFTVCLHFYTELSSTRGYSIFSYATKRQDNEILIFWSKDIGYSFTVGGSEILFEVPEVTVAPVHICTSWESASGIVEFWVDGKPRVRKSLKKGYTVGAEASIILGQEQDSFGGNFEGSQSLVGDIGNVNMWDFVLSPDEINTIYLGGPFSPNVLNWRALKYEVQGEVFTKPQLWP

B1: MB-P (PDGF-BB sensing aptamer) (structured_DNA)
DNA: GATGTCCACGAGGTCTCTGCGGCATCAACAATCTCGAATTTTTTACTCAGGGCACTGCAAGCAATTGTGGTCCCAATGGGCTGAGTATCGTACGCTGCAGGTCGAC
B2: MB-T (thrombin sensing aptamer) (structured_DNA)
DNA: GATGTCCACGAGGTCTCTATTGCATTCGCACTTCCGATTTTTTCAGTCCGTGGTAGGGCAGGTTGGGGTGACTCGTACGCTGCAGGTCGAC

Tests used:
C-reactive protein [1] = target: T1, C-reactive protein; experiment: pull-down
C-reactive protein [2] = target: T1, C-reactive protein; experiment: pull-down; remark: listed apart in the source

| Binder | binding result (C-reactive protein [1]) | binding result (C-reactive protein [2]) |
| --- | --- | --- |
| B1 | no binding | – |
| B2 | – | no binding |
